130 substances from the supplement of paper PMC12042874 can be followed below.

This series can be described thus: amyloid nucleation score (Sup35N fusion, yeast selection) (log enrichment); library NNK3; higher = more nucleation; inactive = no reads after selection. In outline: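 Peptides of 20 random codons, each fused to Sup35N, were expressed in psi-negative yeast. Cells were induced with 100 μM copper sulfate for 24 hours and grown 7 days at 30°C on medium lacking adenine and uracil, and plasmid inserts before and after selection were Illumina-sequenced. Nucleation scores are DiMSum log enrichments of output over input reads, centred on the mode score of non-aggregating sequences, and sequences under 100 input reads were excluded.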

± gives the uncertainty stated by the source.

For the substance AVCFRVLCFKLLTT, the amyloid nucleation score entry is “inactive”.
In the case of HNWNRFTQSILWGTYNFFVG it was 2.26 ± 0.085.
In the case of VAYNRGSQCCR it was “inactive”; in that of HLNTSLETLKVLMVTQPTGN, “inactive”.
To IVRFNSLHYFWETDKTI belongs “inactive”; to LLYETLLIIMCGKCLQFYIV, “inactive”.
With RKEMLKMRRFRSRGCWVILS, the amyloid nucleation score entry was “inactive”.
To RHGLCFTIEAVPPPFIRWHW belongs -0.662 ± 1.3; to FRVSVIFIFGCHMFGVLMTP, “inactive”; to ISCRMYLCCQVLTSSCTWSH, 1.34 ± 0.11.
As to KGLFWEGYGMMLRLRWWMMV, the amyloid nucleation score result is “inactive”.
To MMGKRDALVFN belongs “inactive”.
In the case of KTRSAMRDLVVSFWYF it was 1.65 ± 0.075; in that of TCIGNNPMPYFTFCITHNAM, 1.03 ± 0.24.
To VISVTRSYSHTYK belongs “inactive”; to FVWNMFSASLIKI, “inactive”; to SSGRSSPQWG, “inactive”.
ITDYMIQF came in with an amyloid nucleation score of -0.66 ± 0.7.
For the substance SLDLALNMFFFLYAGSNFFF, the amyloid nucleation score result was “inactive”.
To SQWWNVDPRSTQCASGAMRC belongs “inactive”; to IVRDFLAGPIKHSTFEVIDF, “inactive”.
As for TSSHLIGLFYDMLFRDTRSM, the amyloid nucleation score result was “inactive”.
In the case of SCDLELSNLELRVWRDTVRK it was 1.8 ± 0.069; in that of NSGTKQTLGYSSFRD, “inactive”; in that of RLFRWMPDNVTGRWMVYAWF, “inactive”.
In turn, MGPRQKCALIATRKCQSVYL registered an amyloid nucleation score of -0.334 ± 1.1.
On to TPLARFFTCPHIYYLSPGHS, for which the amyloid nucleation score result is “inactive”.
In the case of SQKGCRH it was “inactive”; in that of IDTWFISFRCMFSGNYMYFL, “inactive”; in that of GMLGLMAGKNLEGADRL, “inactive”.
Take WNFIVFGFYLDGRILFISYL: the amyloid nucleation score is -0.755 ± 0.7.
Take SLYWSAMRKYNVVRTIYSRW: the amyloid nucleation score result is “inactive”.
In the case of FWYFYSKEFTRQDLVDLNVM it was “inactive”.
To NTIVLILHYFYNSMLASSVI belongs “inactive”.
In the case of YLRHIVFNRQDYMSTRLCKH it was “inactive”; in that of DTLPHAVKLIEKM, “inactive”; in that of EQVFRYIL, “inactive”.
YRKWGCWHRTFRLIYCTVVL: the amyloid nucleation score entry is “inactive”.
As for TDSCKGVWIMVGFALFLMWS, the amyloid nucleation score result was “inactive”.
In the case of LSNDYCLRWVFMFKVMIRCD it was “inactive”; in that of YDKWSRSMYVKLCLGAALSW, “inactive”; in that of HSWNKCDVYAWGLCTFISWC, 0.987 ± 0.096.
For the substance FELSYNWYNSNFVRRNVPFP, the amyloid nucleation score entry is “inactive”.
On to PTVKKLYMQLFLSPCISSEG, for which the amyloid nucleation score entry was “inactive”.
In turn, EGFYTFALGRICGFWSYNFC registered an amyloid nucleation score of 1.23 ± 0.14.
The substance REGRVLVWYSYYKFYTRHYF gave an amyloid nucleation score of 0.004 ± 0.72.
For RNIYM, the amyloid nucleation score result was “inactive”.
Regarding LTLITPPTRS, the amyloid nucleation score entry is “inactive”.
To NSIQCKRTVCILSGSTVMRE belongs “inactive”.
For ENSSLFFLRDCELWWNVRTR, the amyloid nucleation score amounted to 1.59 ± 0.094.
On to CHLYLPSQTSQH, for which the amyloid nucleation score entry was “inactive”.
As to WKGMITFGI, the amyloid nucleation score entry was “inactive”.
To MRMVTPLSGRPRWYLHF belongs “inactive”; to LNHRIWLTLFGSASRLVKFD, “inactive”.
In the case of IHYRANRCRRYCAFIYKAN it was “inactive”; in that of GLVWTW, -0.01 ± 0.48; in that of TDYQNWFNVEINKF, 1.48 ± 0.14.
Turning to LLDFVNGFYCFDFTGTFNIY, the amyloid nucleation score was 0.993 ± 0.15.
In the case of RHEVYSTANYHVCSCRFFIV it was 0.406 ± 0.17; in that of VSEFFFP, “inactive”.
Turning to LIIGHVFGFHGYVDWDDGTC, the amyloid nucleation score result was “inactive”.
As to AWTIRGQA, the amyloid nucleation score entry was “inactive”.
VPSVYKKRWWYHKPWHNRHV: the amyloid nucleation score result is “inactive”.
In the case of MPMCT it was “inactive”; in that of MRNCEIISWKKAQVLSYNSS, “inactive”.
In the case of SCHSSSGGWEVSGNYRRGKL it was “inactive”; in that of NSWDYYVAWPFVRFG, -0.947 ± 0.98.
To GCSWLFSSLCFLGDNALGST belongs “inactive”; to NDEMVY, “inactive”; to RRNWSCMQTLSLANVVRVSA, “inactive”.
With LYDCRRGNLVTSCWNKCCLP, the amyloid nucleation score result was “inactive”.
In the case of FLISIWGGIGNDNVSVVGVG it was “inactive”; in that of QVSFFSQIRV, “inactive”; in that of NLRSLFKPWPVVPAYMRFME, “inactive”.
To GSSVVS belongs “inactive”; to DKNNLIFFLRAVCYFSSERT, 1.08 ± 0.11; to NETPVSDAESGVLDFTSHEL, “inactive”.
To DFEVSMGQR belongs -0.015 ± 0.8; to GFLESCENLVQFKRARWSNI, “inactive”; to IALTWDSVIYSTYLGVNFLT, 0.627 ± 0.23.
Take LSYQDVWGSYGICEGSVWYS: the amyloid nucleation score result is “inactive”.
Consider YWQDGQ, for which the amyloid nucleation score result is “inactive”.
Consider NSNSI, for which the amyloid nucleation score entry is “inactive”.
For VSSSSEVHCYSSFMYISKSP, the amyloid nucleation score is 0.824 ± 0.16.
Turning to DVGAPCGRFRPHFTNTCLDV, the amyloid nucleation score entry was “inactive”.
In the case of GVFERR it was “inactive”.
To MIGLDDWVLALRVRRCSLLV belongs “inactive”; to LEGGSITCLSPC, “inactive”; to LRRLELIGLECNLTGSRAVP, “inactive”.
To EVYMFFSCPSSNHVWDSRYV belongs “inactive”.
For YKLERTRPDSFMVCERINGH, the amyloid nucleation score result was “inactive”.
To VVYDVTVKKSLDIRFPLRIP belongs “inactive”.
To WVSFKDLSELCLGCFRMPRF belongs “inactive”; to FEYLLGKLCRLCSNAGRSLS, “inactive”; to IHCSDVGALRMYVPSTGPFS, -0.213 ± 0.64.
In the case of QCKHSPGWAWRNSTNHCIAS it was “inactive”; in that of SFYYILYTGCVIGIVASLFK, -0.408 ± 0.58.
On to RNLSLDLT, for which the amyloid nucleation score result was “inactive”.
In the case of QCFCILDFMYWIHARSIM it was “inactive”; in that of SVLIFTMKDFLGEIFINVPT, 1.89 ± 0.092.
In the case of ISRDGVRCEVWMWPWPREPA it was “inactive”; in that of FRVLDRSKKVNYRSFLYLIR, “inactive”.
In the case of VRVLDWNLMHFFFSYKRFLQ it was -0.094 ± 0.25; in that of CVSNLLTTYNNAFRFAHMVS, “inactive”.
With KKSKRISLGR, the amyloid nucleation score entry is “inactive”.
In the case of MSCSASSSGKAWFGGSPTWW it was 0.674 ± 0.3.
In the case of VMWPIGSCDRE it was “inactive”.
In the case of TFWVFIAQKRCSGGKYGCMC it was -0.097 ± 0.69.
For GSDEEESLNCSYASSLTSVC, the amyloid nucleation score entry was “inactive”.
On to HCVRVASWGT, for which the amyloid nucleation score result was “inactive”.
In the case of AFSKRSSWNNHFICVNDVVQ, the amyloid nucleation score result was “inactive”.
As for VVATTLEFMWRHMGTYFWGI, the amyloid nucleation score entry was “inactive”.
On to INIYSKELSNDGFSTLHYFM, for which the amyloid nucleation score result was “inactive”.
To VGRSEIYPACPLHSFKMDKF belongs “inactive”; to VIDFYVEPCLIYGAPPCWLH, 0.606 ± 0.38.
To AKFSGVLKAYAVREATYCLG belongs “inactive”.
To HKGAQPVKVKSGQSDTRPPS belongs “inactive”; to CRTQYKCRIAIWGYKFQPER, “inactive”.
Regarding MQMMGNEILRFFFVSVLNIN, the amyloid nucleation score result is “inactive”.
In the case of MRARLFNRITYIGNECNVLS it was “inactive”.
For the substance YTWLAFRFSTSLHPRYSNIG, the amyloid nucleation score result is “inactive”.
Turning to IWVSYWAGFVRSFSRVCNLV, the amyloid nucleation score result is “inactive”.
In the case of ITNIFFFHSTLLRSCRASGN it was 2.47 ± 0.063; in that of FYYIVIFSNHWPSCILCRGR, 0.792 ± 0.28.
In the case of CSKIFGRERMFYRVDMVS it was “inactive”; in that of YKHVARLEP, “inactive”; in that of IGPIWVPYHMSIIRSLLFGI, “inactive”.
For the substance FVFCLEGTGGVFDFGFGIGI, the amyloid nucleation score result was “inactive”.
VRVLMSL displayed an amyloid nucleation score of -0.087 ± 0.45.
As to FTAQRGSTCHPYVRKHEYI, the amyloid nucleation score entry was “inactive”.
